Results on 1 molecule are retold here after patent US8741840B2, “BMP-7 for use in treating neointimal hyperplasia” (Washington University, priority 2008, dated 2014).

The test system of the test is hVSMC. The experiment in a line: RT-PCR of osteoblastic differentiation program genes in hVSMC. Type of test: cell-based, human. As for the experimental part: Cell Culture: Human adult aorta were obtained from seven cadaveric organ donors rejected because of atherosclerosis by Mid-America Transplant Services (St. Louis, Mo.) and enzymatically digested to obtain Human Smooth Muscle Cells (HSMC). Medial tissue was separated from the adventia and intima and digested with collagenase type I (Worthington, Lakewood, N.J.) 2 mg/ml for 1 hr, and washed with Hank's balanced salt solution (HBSS). Further digestion followed with collagenase type II 1 mg/ml (Worthington, Lakewood, N.J.) and elastase 0.25 mg/ml (Worthington, Lakewood, N.J.) for 4 hrs. Cell suspensions were washed twice with HBSS and cultured in T-75 flasks for three weeks in a 95%/5% air/CO2 humidified environment at 37° C. The growth medium used was DMEM containing […] glucose (high glucose), 10% fetal bovine serum (FBS, Atlas, Fort Collins, Colo.), 1 mM sodium pyruvate, 100 units/ml Penicillin and […] Streptomycin (Sigma, St Louis, Mo.). Cell purity was assessed by positive immunostaining for α-smooth muscle actin and calponin and for the absence of von Willebrand factor. In all experimental protocols, cells were seeded at 1×10^5 cells/well in six-well plates. Medium was changed on the first day and every third day thereafter. In all cases, cells used were between passages two and five (Table 3).
RT-PCR: RNA was extracted from cell cultures using RNeasy Mini Kits (Qiagen, Valencia, Calif.). Semi-quantitative RT-PCR was conducted using Roche 1st Strand cDNA Synthesis Kit (Indianapolis, Ind.) and PCR kit from Invitrogen (Grand Island, N.Y.) according to manufacturer's instructions using a two-step method. 1 μg of total RNA was reverse transcribed and random primers were added for 60 min at 42° C., prior to PCR. Forward and Reverse primers (Table 4) were added and the reactions subjected to PCR for 20-35 cycles. The number of cycles necessary to amplify cDNA but remain within the exponential amplification range was determined for each primer set. GAPDH was used as internal standard to assess loading. Genomic contamination was assessed by heat inactivation of the reverse transcriptase prior to RT-PCR. Primers were designed using Vector NTI soft ware (Invitrogen, Grand Island, N.Y.) and optimal conditions for each prime pairs were determined (Table 4). A Perkin-Elmer DNA Thermal Cycler was used to perform the reaction. Products were separated on a 2% agarose E-gel (Invitrogen, Grand Island, N.Y.), and visualized with ethidium bromide. The band intensity was analyzed first by scanning the gel on a Typhoon 9410 gel imager (Amersham Biosciences), quantified by using TotalLab software v2003.03 (Nonlinear Dynamics, Durham, N.C.) and normalized for loading by comparison to GAPGH. Negative controls were performed by inactivating the reverse transcriptase by boiling for 5 min prior to RT-PCR to insure that genomic DNA was not amplified.
Stimulation of osteoblastic differentiation through osterix induction. […] Osterix (E) was only weakly expressed in basal culture conditions. Phosphorus stimulated transcription of osterix (E). […] The data in A-E were normalized to the expression level in basal culture conditions and expressed as fold induction, mean±SEM, n=3. In: Principles of Bone Biology, edited by Bilezikian J P et al., New York, Academic Press, 1996, pp 51-67; Hoffmann H M et al., Proc. Nat. […]

B1: BMP-7: bone morphogenetic protein-7 (osteogenic protein-1), mineralization-countering morphogen; provided by Johnson and Johnson (protein, listed as Homo sapiens)
chain: STGSKQRSQNRSKTPKNQEALRMANVAENSSSDQRQACKKHELYVSFRDLGWQDWIIAPEGYAAYYCEGECAFPLNSYMNATNHAIVQTLVHFINPETVPKPCCAPTQLNAISVLYFDDSSNVILKKYRNMVVRACGCH
Turning to B1, under “2 mM phosphorus plus 10 ng/ml BMP-7 (FIG. 5A)”, the osteocalcin expression result was “inhibited osterix and osteocalcin expression”. The BMP-2 expression result (2 mM phosphorus plus 10 ng/ml BMP-7 (FIG. 5B)) was “failed to affect expression”. Besides, the RUNX2 expression entry (2 mM phosphorus plus 10 ng/ml BMP-7 (FIG. 5D)) is given as “failed to affect expression”. Further, the osterix expression result (2 mM phosphorus plus 10 ng/ml BMP-7 (FIG. 5E)) is “strongly inhibited osterix expression”.
